Test [1] deals with SARS-CoV-2 S ectodomain, ancestral (S-2P) (SARS-CoV-2) (UniProt P0DTC2).
The target is the same in test [2]. This is another data set of the same source.
For test [3], the target named is SARS-CoV-2 S Ancestral (S-2P ectodomain) (SARS-CoV-2 (ancestral)) (UniProt P0DTC2). The test is described as follows: protein ELISA. On the technique in general: In an ELISA, binding on a coated surface is turned into a signal by an enzyme label.
Test [4] deals with SARS-CoV-2 S ectodomain, ancestral (S-2P) (SARS-CoV-2) (UniProt P0DTC2). The test is described as follows: ELISA on coated S.

Where two headings read alike, the source gives them in different places.

Turning to C121 (antibody), the IC50 (read off the curve) in test [1] is 1 µg/mL; in test [2] it was 0.3 µg/mL. In addition, in test [3], the half-maximal effective concentration (EC50) worked out at 0.0187 µg/mL.
In test [4], CV3-25 (antibody) registered an EC50 of 0.0139 µg/mL.
The same measure, in the same setting: in the case of S2P6 (antibody) it was 0.0379 µg/mL.

What is called EC50 is the midpoint of the concentration-response curve. The low end stands for a more potent agent, the high end for a less potent agent.

The values are drawn from patent US20250382354A1.
